From patent US20260176378A1 (DYAX, published 2026)

B1: M11-G12 (Fab, V domains shown)
VH: EVQLLESGGGLVQPGGSLRLSCAASGFTFSQYPMNWVRQAPGKGLEWVSSISSSGGFTTYADSVKGRFTISRDNSKNTLYLQMNSLRAEDTAVYYCAREEQQGGFDYWGQGTLVTVSS
VL: DIQMTQSPSSLSAFVGDRVSITCRASQTISVYVNWYQHKSGQAPKLLIYGASSLQSGVPSRFSGSGSGTDFTLTISSLQPEDFATYFCQQSYSIPFTFGGGTDVQIR
B2: M12-A08 (Fab, V domains shown)
VH: EVQLLESGGGLVQPGGSLRLSCAASGFTFSWYYMGWVRQAPGKGLEWVSWIVSSGGLTLYADSVKGRFTISRDNSKNTLYLQMNSLRAEDTAMYYCARTTVTTGDAFDIWGQGTMVTVSS
VL: DIQMTQSPSSLSASVGDRVTITCRASQSISRYLNWYQQKPGKAPKLLIYAASTLETGVPSRFSGSGSGTDFTLTITTLQPEDFVIYYCQQSYSTPYTFGQGTKLEIK
B3: M12-B04 (Fab, V domains shown)
VH: EVQLLESGGGLVQPGGSLRLSCAASGFTFSLYSMYWVRQAPGKGLEWVSRIRPSGGGTVYADSVKGRFTISRDNSKNTLYLQMNSLRAEDTAVYYCARDPLYSSGDVWGQGTTVTVSS
VL: DIQMTQSPSSLSASVGDRVTITCRASQGIRNDLGWYQHKPGKAPKLLIYAASILQSGVPSRFSGTASGTDFTLTISSLQPEDFATYFCLQDYEYPLTFGGGTKLDIK
B4: M12-C09 (Fab, V domains shown)
VH: EVQLLESGGGLVQPGGSLRLSCAASGFTFSSYAMVWVRQAPGKGLEWVSSIGSSGGFTLYADSVKGRFTISRDNSKNTLYLQMNSLRAEDTAVYYCASMNLGGGDAFDIWGQGTMVTVSS
VL: DIQMTQSPSSLSASVGDRVTITCRASQSIGIYLNWYHQKPGKAPNLLIYGASSLQSGVPSRFSGSGSGTDFTLTISSLQPGDFATYYCQHSYSTPFTFGGGTKVEIK
B5: M12-C10 (Fab, V domains shown)
VH: EVQLLESGGGLVQPGGSLRLSCAASGFTFSDYEMHWVRQAPGKGLEWVSGISPSGGKTQYADSVKGRFTISRDNSKNTLYLQMNSLRAEDTAVYYCARDLKWGGRGSPDWYFDLWGRGTLVTVSS
VL: QSALTQPPSVSVSPGQTASITCSGDKLGEKYVSWYQQKPGQSPVVVIYQDNKRPSGIPERFSGSNSGNTATLTISGTQAVDEADYYCQAWDSYTVVFGGGSKLTVLG
B6: M12-D10 (Fab, V domains shown)
VH: EVQLLESGGGLVQPGGSLRLSCAASGFTFSNYPMDWVRQAPGKGLEWVSSISSSGGWTNYADSVKGRFTISRDNSKNTLYLQMNSLRAEDTAVYYCATDTSGSYLGFDYWGQGTLVTVSS
VL: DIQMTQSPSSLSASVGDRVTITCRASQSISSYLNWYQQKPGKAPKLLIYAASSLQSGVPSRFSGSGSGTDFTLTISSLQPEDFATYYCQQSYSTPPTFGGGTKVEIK
B7: M12-E06 (Fab, V domains shown)
VH: EVQLLESGGGLVQPGGSLRLSCAASGFTFSQYKMLWVRQAPGKGLEWVSGIGPSGGLTAYADSVKGRFTISRDNSKNTLYLQMNSLRAEDTAVYYCARAPWFGELGMDVWGQGTTVTVSS
VL: DIQMTQSPSSLSASVGDRVSITCRASQSISTYLNWYQHKPGKAPTLLIYGAFSLQSGVPSRFSGSGSGTDFALTISSLQPEDFATYYCQQSHSTPPTFGQGTRVEIK
B8: M27-A10 (Fab, V domains shown)
VH: EVQLLESGGGLVQPGGSLRLSCAASGFTFSWYRMDWVRQAPGKGLEWVSSIWPSGGLTSYADSVKGRFTISRDNSKNTLYLQMNSLRAEDTAVYYCARGWAPGGDAFDIWGQGTMVTVSS
VL: DIQMTQSPSSLSASVGDRVTITCRASQSISAYLNWYQQKPGKAPQLLMYGVGSLQSGVPSRFSGSGSGTDFTLTISSLQPEDFATYFCQQGYTTPVTFGGGTKVEIK
B9: M27-B01 (Fab, V domains shown)
VH: EVQLLESGGGLVQPGGSLRLSCAASGFTFSDYTMWWVRQAPGKGLEWVSSISSSGGITFYADSVKGRFTISRDNSKNTLYLQMNSLRAEDTAVYYCARSADTAMGGAFDIWGQGTMVTVSS
VL: not shown

Each binder was assayed against T1, human plasma kallikrein (human, UniProt P03952 20-390; P03952 391-638) (assay: ELISA, biotinylated pKal signal over streptavidin background).
T1 construct: two disulfide-linked chains; NP_000883.2; also called pKal; hpKal
T1 sequence (P03952 20-390 limits assumed, chain 1 of 2): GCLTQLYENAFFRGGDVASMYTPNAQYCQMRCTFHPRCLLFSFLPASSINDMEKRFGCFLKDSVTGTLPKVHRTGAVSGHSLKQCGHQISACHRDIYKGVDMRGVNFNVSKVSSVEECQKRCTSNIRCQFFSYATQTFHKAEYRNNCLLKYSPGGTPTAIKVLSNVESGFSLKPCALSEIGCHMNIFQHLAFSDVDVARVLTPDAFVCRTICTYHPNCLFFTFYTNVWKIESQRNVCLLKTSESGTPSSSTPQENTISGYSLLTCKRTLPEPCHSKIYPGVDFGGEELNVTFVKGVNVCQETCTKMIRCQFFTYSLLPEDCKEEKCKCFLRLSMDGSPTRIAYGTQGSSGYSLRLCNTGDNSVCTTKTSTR
T1 sequence (P03952 391-638 limits assumed, chain 2 of 2): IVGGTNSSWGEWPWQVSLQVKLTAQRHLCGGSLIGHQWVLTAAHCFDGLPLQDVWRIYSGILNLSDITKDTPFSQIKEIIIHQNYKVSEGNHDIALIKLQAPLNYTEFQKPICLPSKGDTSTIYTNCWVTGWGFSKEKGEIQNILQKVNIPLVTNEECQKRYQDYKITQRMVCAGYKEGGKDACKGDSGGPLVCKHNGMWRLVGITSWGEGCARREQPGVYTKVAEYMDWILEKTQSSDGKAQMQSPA

Row | Binder | ELISA (T/B)
1 | B1 | 4.9
2 | B2 | 40.4
3 | B3 | 18
4 | B4 | 7
5 | B5 | 8.3
6 | B6 | 9.9
7 | B7 | 48
8 | B8 | 3.2
9 | B9 | 33.1
